# In publication PMC6872938:
# Legend:
# [1] = target: His6-tagged HzTransib transposase (Transib transposase from Helicoverpa zea), residues 17-507 (Helicoverpa zea); test: SEC-MALS
# [2] = target: MBP-tagged HzTransib transposase (Transib transposase from Helicoverpa zea), residues 17-507 (Helicoverpa zea); test: SEC-MALS
stoichiometry N [1],stoichiometry N [2],Substance
2,,"His6-tagged HzTransib transposase (Transib transposase from Helicoverpa zea), residues 17-507 (enzyme)"
,2,"MBP-tagged HzTransib transposase (Transib transposase from Helicoverpa zea), residues 17-507 (enzyme)"
